Reference: US20220235135A1 (COUNCIL OF THE QUEENSLAND INSTITUTE OF MEDICAL RESEARCH, published 2022)

Molecular target: T1, Human GAL9 protein (Galectin-9) (human, UniProt O00182 1-355)
T1 construct: Bought His-tagged protein; also called hGAL9; Human Gal9 His-tag (Acro Biosystems Cat #LG9-H5244)
Assay: Octet BLI, IgG1 on biosensor, GAL9 analyte dilution series, global fit (monovalent affinity)
Description: To measure qualitative binding affinity in the GAL9 binder discovery campaigns, IgG1 reformatted binders were immobilized to a biosensor on an Octet (Pall ForteBio) biolayer interferometer.
Soluble GAL9 antigen was then added to the system and binding measured. […] Octet kinetic analysis software was used to calculate the kinetic and equilibrium binding constants based on the rate of association and dissociation curves. Analysis was performed globally (global fit) where kinetic constants were derived simultaneously from all analyte concentration included in the experiment.

T1 sequence (O00182 whole entry): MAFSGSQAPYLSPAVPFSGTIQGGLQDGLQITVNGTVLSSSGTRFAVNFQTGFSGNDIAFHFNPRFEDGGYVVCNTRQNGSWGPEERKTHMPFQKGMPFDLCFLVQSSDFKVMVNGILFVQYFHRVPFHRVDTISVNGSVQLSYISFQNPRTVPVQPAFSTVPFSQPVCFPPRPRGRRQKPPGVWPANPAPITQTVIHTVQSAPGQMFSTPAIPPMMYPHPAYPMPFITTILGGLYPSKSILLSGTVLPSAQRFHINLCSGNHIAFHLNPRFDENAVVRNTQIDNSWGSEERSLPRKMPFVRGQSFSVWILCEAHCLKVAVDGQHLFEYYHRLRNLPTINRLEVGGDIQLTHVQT

B1: P9-10 (antibody, human IgG1, kappa, V domains shown)
VH: EVQLVESGGGLVQPGGSLRLSCAASGFTFDYYVIHWVRQAPGKGLEWVAAIDSYWGDTYYADSVKGRFTISADTSKNTAYLQMNSLRAEDTAVYYCARFYFYGFDYWGQGTLVTVSS
VL: DIQMTQSPSSLSASVGDRVTITCRASQSVSSAVAWYQQKPGKAPKLLIYSASSLYSGVPSRFSGSRSGTDFTLTISSLQPEDFATYYCQQYSWSLWTFGQGTKVEIKR
notes: bivalent monospecific native human full-length IgG1; also called ABS clone P9-10
- Kd: 5.77 nM

B2: P9-32 (antibody, human IgG1, kappa, V domains shown)
VH: EVQLVESGGGLVQPGGSLRLSCAASGFTFSAYWIHWVRQAPGKGLEWVALIGPDGGYTYYADSVKGRFTISADTSKNTAYLQMNSLRAEDTAVYYCARQASRGLDYWGQGTLVTVSS
VL: DIQMTQSPSSLSASVGDRVTITCRASQSVSSAVAWYQQKPGKAPKLLIYSASSLYSGVPSRFSGSRSGTDFTLTISSLQPEDFATYYCQQWSSPLHTFGQGTKVEIKR
notes: bivalent monospecific native human full-length IgG1; also called ABS clone P9-32
- Kd: 1.08 nM

B3: P9-16 (antibody, human IgG1, kappa, V domains shown)
VH: EVQLVESGGGLVQPGGSLRLSCAASGFTFSYYWIHWVRQAPGKGLEWVADIYPSSGYTYYADSVKGRFTISADTSKNTAYLQMNSLRAEDTAVYYCARGWYAAYGMDYWGQGTLVTVSS
VL: DIQMTQSPSSLSASVGDRVTITCRASQSVSSAVAWYQQKPGKAPKLLIYSASSLYSGVPSRFSGSRSGTDFTLTISSLQPEDFATYYCQQYALRPLTFGQGTKVEIKR
notes: bivalent monospecific native human full-length IgG1; also called ABS clone P9-16
- Kd: 2.87 nM

B4: P9-22 (antibody, human IgG1, kappa, V domains shown)
VH: EVQLVESGGGLVQPGGSLRLSCAASGFTFSSYYIHWVRQAPGKGLEWVAAIYPFSGGTYYADSVKGRFTISADTSKNTAYLQMNSLRAEDTAVYYCARGYYVYVVMDYWGQGTLVTVSS
VL: DIQMTQSPSSLSASVGDRVTITCRASQSVSSAVAWYQQKPGKAPKLLIYSASSLYSGVPSRFSGSRSGTDFTLTISSLQPEDFATYYCQQYKSSPWTFGQGTKVEIKR
notes: bivalent monospecific native human full-length IgG1; also called ABS clone P9-22; α-GAL9 (P9-22)
- Kd: 4.85 nM

B5: P9-18 (antibody, human IgG1, kappa, V domains shown)
VH: EVQLVESGGGLVQPGGSLRLSCAASGFTFSWYVIHWVRQAPGKGLEWVAAIYPYHSKTYYADSVKGRFTISADTSKNTAYLQMNSLRAEDTAVYYCARGYWYGMDYWGQGTLVTVSS
VL: DIQMTQSPSSLSASVGDRVTITCRASQSVSSAVAWYQQKPGKAPKLLIYSASSLYSGVPSRFSGSRSGTDFTLTISSLQPEDFATYYCQQYTDAPWTFGQGTKVEIKR
notes: the murine IgG backbones were used only in vivo; also called ABS clone P9-18; Clone 18
- Kd: 6.24 nM

B6: P9-15 (antibody, human IgG1, kappa, V domains shown)
VH: EVQLVESGGGLVQPGGSLRLSCAASGFTFRYYWIHWVRQAPGKGLEWVAAIFPSGGITTYADSVKGRFTISADTSKNTAYLQMNSLRAEDTAVYYCARGWPWGLDYWGQGTLVTVSS
VL: DIQMTQSPSSLSASVGDRVTITCRASQSVSSAVAWYQQKPGKAPKLLIYSASSLYSGVPSRFSGSRSGTDFTLTISSLQPEDFATYYCQQRDRSPYTFGQGTKVEIKR
notes: bivalent monospecific native human full-length IgG1; also called ABS clone P9-15; Clone 15
- Kd: 2.21 nM

B7: P9-28 (antibody, human IgG1, kappa, V domains shown)
VH: EVQLVESGGGLVQPGGSLRLSCAASGFTFGFYYIHWVRQAPGKGLEWVAFIDPHGGSTYYADSVKGRFTISADTSKNTAYLQMNSLRAEDTAVYYCARLSYPGVLDYWGQGTLVTVSS
VL: DIQMTQSPSSLSASVGDRVTITCRASQSVSSAVAWYQQKPGKAPKLLIYSASSLYSGVPSRFSGSRSGTDFTLTISSLQPEDFATYYCQQGYSTLVTFGQGTKVEIKR
notes: bivalent monospecific native human full-length IgG1; also called ABS clone P9-28; α-GAL9 (P9-28)
- Kd: 3.36 nM
